# Reference: ChEMBL document CHEMBL2074389, “Isolation of a multispecific organic anion and cardiac glycoside transporter from rat brain” (Proc Natl Acad Sci U S A, 1997)
# T1: Solute carrier organic anion transporter family member 1A4 (SLCO1A4, OATP1A4) (Rattus norvegicus, UniProt O35913)
# T1 sequence (O35913 whole entry): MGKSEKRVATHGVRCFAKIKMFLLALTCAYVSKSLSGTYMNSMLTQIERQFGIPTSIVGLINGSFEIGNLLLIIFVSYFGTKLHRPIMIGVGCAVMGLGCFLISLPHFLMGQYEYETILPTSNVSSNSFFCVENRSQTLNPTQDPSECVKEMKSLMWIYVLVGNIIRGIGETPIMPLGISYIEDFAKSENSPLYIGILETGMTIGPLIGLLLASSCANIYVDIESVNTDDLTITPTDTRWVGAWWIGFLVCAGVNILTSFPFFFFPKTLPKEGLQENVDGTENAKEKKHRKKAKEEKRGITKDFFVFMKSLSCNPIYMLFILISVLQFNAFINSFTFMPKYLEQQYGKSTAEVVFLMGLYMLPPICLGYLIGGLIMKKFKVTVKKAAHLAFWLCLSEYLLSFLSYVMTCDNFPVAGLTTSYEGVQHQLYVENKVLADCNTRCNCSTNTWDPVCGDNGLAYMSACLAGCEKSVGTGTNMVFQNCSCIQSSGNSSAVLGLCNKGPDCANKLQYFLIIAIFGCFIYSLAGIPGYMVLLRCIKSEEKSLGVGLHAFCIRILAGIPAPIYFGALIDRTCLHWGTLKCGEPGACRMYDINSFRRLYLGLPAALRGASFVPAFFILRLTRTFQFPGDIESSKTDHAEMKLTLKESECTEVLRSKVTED
# T2: Solute carrier organic anion transporter family member 1A4 (Rattus norvegicus, UniProt O35913)
# T2 sequence (O35913 whole entry): T1 sequence (O35913 whole entry)
# B1: Solute carrier organic anion transporter family member 1A4 (Rattus norvegicus) (protein)
# chain: T1 sequence (O35913 whole entry)
# Columns and labels:
# Assay type in all cases: functional, cell-based, Oocyte
# [1] = target: T1, Solute carrier organic anion transporter family member 1A4 (SLCO1A4, OATP1A4); experiment: (§1) TP_TRANSPORTER: uptake in Xenopus laevis oocytes; details: Xenopus laevis oocytes expressing the transporter
# [2] = target: T2, Solute carrier organic anion transporter family member 1A4; experiment: as §1; details: oocyte
# [3] = substrate: C[C@]12CC[C@@H]3c4ccc(OS(=O)(=O)O)cc4CC[C@H]3[C@@H]1CCC2=O; experiment: as §1
# [4] = substrate: C[C@]12CC[C@@H]3c4ccc(O)cc4CC[C@H]3[C@@H]1CC[C@@H]2O[C@@H]1O[C@H](C(=O)O)[C@@H](O)[C@H](O)[C@H]1O; experiment: as §1
# [5] = substrate: C[C@H]1O[C@@H](O[C@H]2[C@@H](O)C[C@H](O[C@H]3[C@@H](O)C[C@H](O[C@H]4CC[C@@]5(C)[C@H](CC[C@@H]6[C@@H]5C[C@@H](O)[C@]5(C)[C@@H](C7=CC(=O)OC7)CC[C@]65O)C4)O[C@@H]3C)O[C@@H]2C)C[C@H](O)[C@@H]1O; experiment: as §1
molecule,measurement,setting,value
C[C@@H]1O[C@@H](O[C@H]2C[C@@H](O)[C@]3(CO)[C@H]4[C@H](O)C[C@]5(C)[C@@H](C6=CC(=O)OC6)CC[C@]5(O)[C@@H]4CC[C@]3(O)C2)[C@H](O)[C@H](O)[C@H]1O [OUABAIN],Km,[1],470 µM
CN(Cc1cnc2nc(N)nc(N)c2n1)c1ccc(C(=O)N[C@@H](CCC(=O)O)C(=O)O)cc1 [METHOTREXATE],Activity,[2],is not a substrate [-]
B1,Km,[3],11 µM
same,Km,[4],3 µM
same,Km,[5],0.24 µM
